Experimental data reported in patent publication US20050058640A1 (BAXTER INTERNATIONAL, published 2005).
Each block holds one molecule with its values, some of them ahead of it.

Legend:
[1] = biological target: factor VIII / factor VIIIa (recombinant human coagulation factor VIII, thrombin-activated) (UniProt P00451)
human factor IXa [2] = biological target: T1, human factor IXa (human, UniProt P00740 47-191; P00740 227-461); assay: cell-based or functional assay
human factor IXa [3] = biological target: T1, human factor IXa; assay: SPR (BIACORE), antibody captured by anti-mouse Fc on CM5 chip, FIXa in flow, steady state analysis
Text: Polyclonal anti-mouse Fc antibodies were immobilized on a CM5 sensor chip and saturated with the respective monoclonal antibody. As a reference, a non-specific mouse IgG was used.

murine FIX = biological target: T2, murine FIX (murine, UniProt P16294 47-471); assay: ELISA and Western blot
T2 construct: also called murine factor IX

bovine FIX = biological target: T3, bovine FIX (bovine, UniProt P00741 47-462); assay: ELISA and Western blot
T3 construct: also called bovine factor IX

human factor IXa [4] = biological target: T1, human factor IXa; assay: cell-based or functional assay; remark: listed apart in the source

T1 sequence (P00740 47-191 limits assumed, chain 1 of 2): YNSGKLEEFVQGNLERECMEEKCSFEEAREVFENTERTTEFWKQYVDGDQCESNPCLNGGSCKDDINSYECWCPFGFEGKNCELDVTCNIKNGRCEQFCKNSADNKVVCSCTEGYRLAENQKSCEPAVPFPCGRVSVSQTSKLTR
T1 sequence (P00740 227-461 limits assumed, chain 2 of 2): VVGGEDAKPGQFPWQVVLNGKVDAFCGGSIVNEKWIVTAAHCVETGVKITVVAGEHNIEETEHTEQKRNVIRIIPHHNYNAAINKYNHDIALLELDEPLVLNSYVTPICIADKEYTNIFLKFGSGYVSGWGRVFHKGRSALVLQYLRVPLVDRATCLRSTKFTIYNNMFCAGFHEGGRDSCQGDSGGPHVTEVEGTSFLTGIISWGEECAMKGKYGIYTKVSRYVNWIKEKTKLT
T2 sequence (P16294 47-471 limits assumed): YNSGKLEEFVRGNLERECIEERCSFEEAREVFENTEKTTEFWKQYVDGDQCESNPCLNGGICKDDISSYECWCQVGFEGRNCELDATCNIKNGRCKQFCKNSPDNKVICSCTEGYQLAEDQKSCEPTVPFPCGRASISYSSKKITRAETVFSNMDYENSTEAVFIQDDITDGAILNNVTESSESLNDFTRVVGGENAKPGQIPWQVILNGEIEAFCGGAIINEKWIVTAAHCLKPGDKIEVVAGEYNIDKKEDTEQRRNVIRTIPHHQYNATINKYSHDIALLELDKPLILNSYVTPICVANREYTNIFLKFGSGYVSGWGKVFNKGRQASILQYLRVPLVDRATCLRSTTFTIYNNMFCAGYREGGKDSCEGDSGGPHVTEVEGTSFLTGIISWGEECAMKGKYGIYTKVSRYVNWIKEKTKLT
T3 sequence (P00741 47-462 limits assumed): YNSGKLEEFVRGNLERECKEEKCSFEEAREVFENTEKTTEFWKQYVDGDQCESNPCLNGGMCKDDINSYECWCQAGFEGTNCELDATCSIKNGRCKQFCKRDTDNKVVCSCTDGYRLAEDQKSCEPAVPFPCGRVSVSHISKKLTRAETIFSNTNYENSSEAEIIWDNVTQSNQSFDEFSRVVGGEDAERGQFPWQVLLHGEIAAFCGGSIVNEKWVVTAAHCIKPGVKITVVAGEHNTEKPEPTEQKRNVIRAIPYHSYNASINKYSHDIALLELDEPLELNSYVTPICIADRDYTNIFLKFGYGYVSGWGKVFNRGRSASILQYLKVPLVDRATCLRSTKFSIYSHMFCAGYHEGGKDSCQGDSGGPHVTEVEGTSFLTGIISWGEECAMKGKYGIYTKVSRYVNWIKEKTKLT
Chain of factor VIII / factor VIIIa (recombinant human coagulation factor VIII, thrombin-activated) (P00451 20-2351): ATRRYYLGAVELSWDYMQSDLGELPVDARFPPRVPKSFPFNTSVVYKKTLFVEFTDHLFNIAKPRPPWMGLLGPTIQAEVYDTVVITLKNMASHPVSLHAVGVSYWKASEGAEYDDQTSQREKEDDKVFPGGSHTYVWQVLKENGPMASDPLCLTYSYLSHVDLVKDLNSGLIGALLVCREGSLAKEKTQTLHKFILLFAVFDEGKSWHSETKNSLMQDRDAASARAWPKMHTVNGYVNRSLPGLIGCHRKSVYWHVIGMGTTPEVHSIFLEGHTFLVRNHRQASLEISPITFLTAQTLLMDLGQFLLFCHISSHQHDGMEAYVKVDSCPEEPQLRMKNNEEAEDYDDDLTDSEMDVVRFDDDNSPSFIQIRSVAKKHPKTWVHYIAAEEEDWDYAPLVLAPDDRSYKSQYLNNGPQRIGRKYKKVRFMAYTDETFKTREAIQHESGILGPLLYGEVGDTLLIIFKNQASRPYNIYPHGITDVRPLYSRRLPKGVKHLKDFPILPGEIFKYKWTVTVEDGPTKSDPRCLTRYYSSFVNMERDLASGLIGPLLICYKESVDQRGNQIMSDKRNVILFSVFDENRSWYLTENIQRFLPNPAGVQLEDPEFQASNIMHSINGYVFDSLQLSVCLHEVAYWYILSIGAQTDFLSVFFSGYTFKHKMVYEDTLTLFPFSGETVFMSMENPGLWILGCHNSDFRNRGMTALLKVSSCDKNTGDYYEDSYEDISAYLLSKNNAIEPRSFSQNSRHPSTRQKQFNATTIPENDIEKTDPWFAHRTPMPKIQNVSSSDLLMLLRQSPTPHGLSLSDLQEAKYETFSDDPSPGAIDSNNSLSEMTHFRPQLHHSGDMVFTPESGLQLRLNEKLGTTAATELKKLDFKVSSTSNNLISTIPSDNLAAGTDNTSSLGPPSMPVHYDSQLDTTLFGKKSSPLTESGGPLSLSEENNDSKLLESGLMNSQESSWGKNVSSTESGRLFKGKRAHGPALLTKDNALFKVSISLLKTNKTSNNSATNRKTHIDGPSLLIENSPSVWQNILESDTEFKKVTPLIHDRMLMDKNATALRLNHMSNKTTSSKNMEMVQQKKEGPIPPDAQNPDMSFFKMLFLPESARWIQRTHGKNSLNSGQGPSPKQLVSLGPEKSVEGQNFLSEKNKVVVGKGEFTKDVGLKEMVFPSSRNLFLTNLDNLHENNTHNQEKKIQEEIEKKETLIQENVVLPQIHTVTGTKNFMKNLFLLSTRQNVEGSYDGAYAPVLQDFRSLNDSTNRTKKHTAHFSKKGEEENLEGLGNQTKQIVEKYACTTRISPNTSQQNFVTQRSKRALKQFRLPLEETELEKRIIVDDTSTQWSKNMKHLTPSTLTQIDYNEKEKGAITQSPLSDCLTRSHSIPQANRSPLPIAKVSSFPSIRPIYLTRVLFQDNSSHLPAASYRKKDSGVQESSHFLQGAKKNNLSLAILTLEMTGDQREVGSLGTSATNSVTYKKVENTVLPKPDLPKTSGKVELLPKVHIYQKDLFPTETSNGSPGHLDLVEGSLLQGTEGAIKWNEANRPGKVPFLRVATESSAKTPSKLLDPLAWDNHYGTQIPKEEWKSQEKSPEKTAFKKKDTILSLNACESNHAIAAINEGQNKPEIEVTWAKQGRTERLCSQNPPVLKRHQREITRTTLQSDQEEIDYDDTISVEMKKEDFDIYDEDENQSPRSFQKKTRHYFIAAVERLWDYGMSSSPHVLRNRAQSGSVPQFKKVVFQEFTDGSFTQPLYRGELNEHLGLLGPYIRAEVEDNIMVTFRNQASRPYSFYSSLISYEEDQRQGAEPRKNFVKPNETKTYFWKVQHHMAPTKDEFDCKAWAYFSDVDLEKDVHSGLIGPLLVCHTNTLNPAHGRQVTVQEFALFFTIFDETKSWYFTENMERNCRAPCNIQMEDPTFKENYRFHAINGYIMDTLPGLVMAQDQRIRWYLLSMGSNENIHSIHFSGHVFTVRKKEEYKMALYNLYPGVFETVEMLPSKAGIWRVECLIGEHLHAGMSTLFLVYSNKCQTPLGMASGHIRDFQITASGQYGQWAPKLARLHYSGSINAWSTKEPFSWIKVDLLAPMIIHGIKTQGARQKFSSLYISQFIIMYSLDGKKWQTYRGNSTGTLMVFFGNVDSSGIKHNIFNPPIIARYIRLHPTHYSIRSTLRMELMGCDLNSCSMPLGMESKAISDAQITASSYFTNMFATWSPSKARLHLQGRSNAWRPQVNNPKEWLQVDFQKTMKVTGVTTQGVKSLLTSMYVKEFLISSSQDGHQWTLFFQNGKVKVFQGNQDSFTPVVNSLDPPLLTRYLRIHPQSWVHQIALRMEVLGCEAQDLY

Molecule: human factor IXa
decrease of Km of FIXa [1]: approximately 2.5-fold

KM (human factor IXa [2]): 0.048 µM
kcat (human factor IXa [2]): 0.000883 s⁻¹
kcat/KM (human factor IXa [2]): 18300 M⁻¹ s⁻¹
Kd (human factor IXa [3]): 0.477 nM
binding result (murine FIX): no binding
binding result (bovine FIX): binds
enhancement of the rate of FXa formation (human factor IXa [4]): 10 fold
increase of kcat of FX activation by FIXa (human factor IXa [4]): ~10 fold
B1: antibody 224F3 (antibody, V domains shown)
VH: QVQMQQSGAELVKPGASVKLSCKASGYTFTSQDINWVRQRPEQGLEWIGWIFPGDGSTKYNEKLKGKATLTTDKSSSTAFMQLSRLTSEDSAVYFCARSAYYRYDGSYYYAMDYWGQGTSVTVSS
VL: QIVLTQSPAIMSASLGEEITLTCSASSSVSYMLWYQQKSGTSPKLLIYTTSNLASGVPSRFSGTGSGTFYSLTISSVEAEDAADYYCHQWSSYPRTFGGGTKLEIKR
